Experimental findings from patent CN115141270A (SHENZHEN KANGMAI BIOTECHNOLOGY CO LTD, dated 2022) are described below.

Assay [1] addresses T1, SARS-CoV-2 RBD结构域蛋白 (序列来自NC_045512.2, 自行表达) (SARS-CoV-2, UniProt P0DTC2 319-541).
T1 construct: domain: RBD
Description: ELISA, RBD domain protein coated at 2 μg/ml, antibody titrated from 10 μg/mL.

The target of assay [2] is T2, SARS-CoV-2 S蛋白(ECD) (购自金斯瑞, Z03481) (SARS-CoV-2, UniProt P0DTC2 14-1213).
The target in assay [3] is SARS-CoV-2 (中国新型冠状病毒, MT226610) live virus, spike glycoprotein (SARS-CoV-2). Briefly: cell-based or functional assay.
The target in assay [4] is T2, SARS-CoV-2 S蛋白(ECD) (购自金斯瑞, Z03481). Briefly: ELISA, S protein (ECD) coated at 2 μg/ml, antibody titrated from 10 μg/mL. (In general: An ELISA detects its analyte on a solid surface through an enzyme-linked reagent.)

The term EC50 denotes the concentration needed to bring the measured effect to its halfway point. Read a low EC50 as higher potency in that assay. What is called Kd is the free concentration of one partner at which half of the binding sites on the other are occupied at equilibrium, for simple one-to-one binding. The low end stands for tighter binding, the high end for weaker binding.

B1: 抗体nCoV617 (anti-coronavirus spike glycoprotein human monoclonal antibody) (antibody, V domains shown)
VH: QVQLVESGGGVVQPGRSLRLSCAASGFTFSSYAMHWVRQAPGKGLEWVALISYDGSNKYYADSVKGRFTISRDNSKNTLYLQMNSLRAEDTAVYYCARGLGLRFLEWPISSYWGQGTLVTVSS
VL: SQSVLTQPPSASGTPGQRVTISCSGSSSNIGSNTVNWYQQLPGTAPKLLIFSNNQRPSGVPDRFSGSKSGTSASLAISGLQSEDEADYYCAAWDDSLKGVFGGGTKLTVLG
notes: also called 抗S蛋白抗体; 抗冠状病毒刺突糖蛋白单克隆抗体
As for B1, the EC50 in assay [1] is 3 ng/mL; in assay [4] it was 2 ng/mL. Besides, in assay [2], the Kd was determined as 8.02 nM. Moreover, the “IC50 (neutralisation of live virus on Vero E6 cells, cytopathic effect)” value in assay [3] stood at 2.3 ng/mL.
